From paper PMC7897279

Target: DNA-PKcs;Ku70;Ku80 (Homo sapiens (HeLa cells);Homo …, UniProt P78527;P12956;P13010 1-4128;1-609;1-732, ||)

B1: 40N (nicked 40 bp DNA) (dsDNA)
DNA 1: GCATGCTCTACTGCTTCGATATCG
DNA 2: AAGCAGTAGAGCATGC
DNA 3: GCATGCTCTACTGCTTCGATATCG
DNA 4: AAGCAGTAGAGCATGC
modifications: none stated
Q: Does B1 bind?
A: Result: binds
